In the supplement of paper PMC11780869:

System: Bacillus subtilis
Assay: cleaved RNA product abundance (RNA/gDNA barcode ratio) relative to median wild-type variant (ratio to wild type); higher = more accumulation of the downstream cleavage product
In short: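 Cleaved product abundance for each construct is its RNA-to-gDNA barcode ratio, scaled to the median construct carrying the unmutated site. Cleaved RNA was isolated on a gel, reverse transcribed and barcode-sequenced, with genomic DNA barcodes sequenced alongside and UMIs collapsed. The reporters were truncated aprE or tetM mRNAs with barcoded, mutagenized RNase Y cleavage-site windows integrated into the B. subtilis chromosome, and cultures grew in LB at 37°C from OD600 0.0003 to 0.3.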

[1] = experiment (reporter, strain, medium): exp 4a: truncated aprE reporter, strain BJT201 with 2% xylose (RNase J1 expressed), cleavage site: cggR-gapA (positions -7 to +36 mutated)
[2] = experiment (reporter, strain, medium): exp 8a: truncated aprE reporter, strain BJT201 with 2% xylose (RNase J1 expressed), cleavage site: glnRA (positions -5 to +31 mutated)
[3] = experiment (reporter, strain, medium): exp 2b: truncated aprE reporter, strain BJT200, cleavage site: cggR-gapA (positions -7 to +36 mutated)
[4] = experiment (reporter, strain, medium): exp 6: tetM reporter, strain 168, cleavage site: cggR-gapA (positions -7 to +36 mutated)

Sequence | cleaved RNA product abundance [1] | cleaved RNA product abundance [2] | other results
ACAGACGAAGGAGCCGCAAAAAAGTTATTAAGGGATGAATAATCCCTCAATATAAATAACTCTCACTTATTTAAA | 1.13 |  | 
CGACATGTCCCGCTTCTTTCATTAATCCGTTAGAAACAGTTTTGCTATATATATTTACATTTTAAGAGGAGGAAT |  | 0.362 | 
ACAGACGAAGGAGCCGCAAAGAAGTTATTAAGGGATGAAAAATTCCTCAATATAAATATCTCTCACTTATTTAAA | 0.327 |  | cleaved RNA product abundance [3]: 0.274
ACAGACGAAGGAGCCGCAAAGAGGTTATTAAGGGATGAATAATCACTCAATATAAATATCTCTCACTTATTTAAA | 0.102 |  | 
ACAGACGAAGGAGCCGCAAATAAGTTATTAAGGGATGAATAATCCCCCAATATAAATATCTCTCACTTATTTAAA | 0.23 |  | 
ACAGACGAAGGAGCCGCAAAGAAGTTATTAAGGGATGAATATTCCCTCAATAAAAATATCTCTCACTTATTTAAA | 0.156 |  | 
CGACATGTCCCGCTTCTTTCATTAATCCGTTAGCAACTGTTTTGCTCTATAAATTTACCTTTTAAGAGGAGGAAT |  | 0.384 | 
CGACATGTCCCGCTTCTTTCATTAATCCATTAGCAACTGTTTTGCTATATACATTTTACTTTTAAGAGGAGGAAT |  | 1.24 | 
CGACATGTCCCGCTTCTTTCATTAAACCGTTAGCAACTGTTTTGCTACATACATTTACCTTTTAAGAGGAGGAAT |  | 0.237 | 
ACAGACGAAGGAGCCGCAAAGAAGTTATAAGGGGATGAATAATCCCTCAATATAAATATCTCTCACTTATTTAAA | 0.49 |  | 
ACAGACGAAGGAGCCGCAAAGAAGTTATTAAGGGATGAATAGTCCCTCAATATAAAAATCTCTCACTTATTTAAA | 1 |  | 
ACAGACGAAGGAGCCGCAAAGAAGCTATTAAGGCATGAATAATCCCTCAATATAAATATCTCTCACTTATTTAAA |  |  | cleaved RNA product abundance [3]: 0.0626
ACAGACGAAGGAGCCGCCAAGAAGTTATTAAGGGATGAATAATCACTCAATATAAATATCTCTCACTTATTTAAA | 0.102 |  | 
CGACATGTCCCGCTTCTTTCATTAATCCGTTAGCAACTGATTTGCTTTATACATTTACCTTTTAAGAGGAGGAAT |  | 0.282 | 
ACAGACGAAGGAGCCGCAAAGTAGTTATTAAGGGATGAATAATCCCTGAATATAAATATCTCTCACTTATTTAAA | 0.524 |  | cleaved RNA product abundance [3]: 0.409
ACAGACGAAGGAGCCGCAAACAAGTTATTAAGGGATGAATAATCCCACAATATAAATATCTCTCACTTATTTAAA | 0.255 |  | cleaved RNA product abundance [3]: 0.109
CGACATGTCCCGCTTCTTTCATTAATCCGTTATCAACTGTATTGCTATATACATTTACCTTTTAAGAGGAGGAAT |  | 0.306 | 
ACAGACGAAGGAGCCGCAATGAAGTTATTAAGGGATGAAAAATCCCTCAATATAAATATCTCTCACTTATTTAAA | 0.548 |  | 
ACAGACGAAGGAGCCGCAAAGAAGTTATTAAGGGCTGAATAATCCATCAATATAAATATCTCTCACTTATTTAAA | 0.0979 |  | cleaved RNA product abundance [3]: 0.084
ACAGACGAAGGAGCCGCAAAGAAGTTATTAGTGGATGAATAATCCCTCAATATAAATATCTCTCACTTATTTAAA | 0.385 |  | cleaved RNA product abundance [3]: 0.295
ACAGACGAAGGAGCCGCAAAGAAGTTATTAAGGGATTAATAATTCCTCAATATAAATATCTCTCACTTATTTAAA | 0.569 |  | cleaved RNA product abundance [3]: 0.543

Sequence | cleaved RNA product abundance [1] | cleaved RNA product abundance [2] | other results
ACAGACGAAGGAGCCGCAAAGAAGTTATTAAGTGATAAATAATTCCTCAATATAAATATCTCTCACTTATTTAAA | 0.0999 |  | 
CGACATGTCCCGCTTCTTTCATTAGTCCGTTAGCAACTGTTTTACTATATACATTTACCTTTTAAGAGGAGGAAT |  | 0.548 | 
CGACATGTCCCGCTTCTTTCATTAATCCGTTAGCAACTGTTTTGCTATAAACCTTTACCTTTTAAGAGGAGGAAT |  | 0.163 | 
ACAGACGAAGGAGCCGCAAAGAACTTATTAAGGGATGAATAATCTCTCAATATAAATATCTCTCACTTATTTAAA | 0.418 |  | 
CGACATGTCCCGCTTCTTTCATTAATCCGTTACCAACTGTTTTGCTATATACATTAACCTTTTAAGAGGAGGAAT |  | 0.238 | 
ACAGACGAAGGAGCCGCAAATAAGTTATTAAGGCATGAATAATCCCTCAATATAAATATCTCTCACTTATTTAAA | 0.0954 |  | cleaved RNA product abundance [3]: 0.0924
CGACATGTCCCGCTTCTTTCATTAATCCGTTATCAACAGTTTTGCTATATACATTTACCTTTTAAGAGGAGGAAT |  | 0.296 | 
CGACATGTCCCGCTTCTTTCATTAAACCGTTAGCAACTGTTTTGTTATATACATTTACCTTTTAAGAGGAGGAAT |  | 0.313 | 
CGACATGTCCCGCTTCTTTCATTAATCCGTTAGCAACCGTTTTGCTATATACATTTACATTTTAAGAGGAGGAAT |  | 0.523 | 
ACAGACGAAGGAGCCGCAAAGAAATTATTAAGGGATGAATAGTCCCTCAATATAAATATCTCTCACTTATTTAAA | 0.937 |  | 
CGACATGTCCCGCTTCTTTCATTAATCCGTTAGCAACTGTTTTGCTATATACATTAACCTTTTAAGAGGAGGAAT |  | 1.37 | 
ACAGACGAAGGAGCCGCAGAGAAGTTATTAAGAGATGAATAATCCCTCAATATAAATATCTCTCACTTATTTAAA | 0.118 |  | cleaved RNA product abundance [3]: 0.0994
ACAGACGAAGGAGCCGCAAAGAAGTTGTTAAGGGATGAATAATCCCTTAATATAAATATCTCTCACTTATTTAAA | 0.892 |  | 
ACAGACGAAGGAGCCGCAAAGAAGATATTAAGGGATGAATAATCCCTCAATATAAATATCTCTCACTTATTTAAA | 0.751 |  | cleaved RNA product abundance [3]: 0.68; cleaved RNA product abundance [4]: 0.612
ACAGACGAAGGAGCCGCAAAGAAGTTATTAAGGGATGATTAATCCCTCAATATAAACATCTCTCACTTATTTAAA | 0.559 |  | 
ACAGACGAAGGAGCCGCAAAGAAGTTATTAAGGGATAACTAATCCCTCAATATAAATATCTCTCACTTATTTAAA | 0.57 |  | 
CGACATGTCCCGCTTCTTTCATTAATCCGTTAGCAACTGTTTTGCTATATACGTTTACCTTTTAAGAGGAGGAAT |  | 0.361 | 
CGACATGTCCCGCTTCTTTCATTAATACGTTAGCAATAGTTTTGCTATATACATTTACCTTTTAAGAGGAGGAAT |  | 0.874 | 
ACAGACGAAGGAGCCGCAAAGAAGTTATTATGGGATGAATAATCCCTCAAAATAAATATCTCTCACTTATTTAAA | 0.277 |  | 
CGACATGTCCCGCTTCTTTCATTAATCCGTTAGCAACTGTTTTGCTATATTCATATACCTTTTAAGAGGAGGAAT |  | 0.449 | 
ACAGACGAAGGAGCCGCAAATAATTTATTAAGGGATGAATAATCCCTCAATATAAATATCTCTCACTTATTTAAA | 0.591 |  | cleaved RNA product abundance [3]: 0.866

Sequence | cleaved RNA product abundance [1] | cleaved RNA product abundance [2] | other results
CGACATGTCCCGCTTCTTTCATTAATCCGTTAGTAACTGTTTTGCAATATACATTTACCTTTTAAGAGGAGGAAT |  | 0.316 | 
ACAGACGAAGGAGCCGCAAAGAAGTAATTAAGGGATGAATAATTCCTCAATATAAATATCTCTCACTTATTTAAA | 0.263 |  | 
ACAGACGAAGGAGCCGCAAAGAAGTTAATAAGGGATGAATAATCCCTCAACATAAATATCTCTCACTTATTTAAA | 0.342 |  | 
ACAGACGAAGGAGCCGCAAAGAAGTTATTAAGGGATTAATAATCGCTCAATATAAATATCTCTCACTTATTTAAA | 0.0904 |  | cleaved RNA product abundance [3]: 0.109
ACAGACGAAGGAGCCGCAAAGAACTTATTAAGGGATGAATGATCCCTCAATATAAATATCTCTCACTTATTTAAA | 0.282 |  | 
ACAGACGAAGGAGCCGCAAAGAAGTTATTAAGGGGTAAATAATCCCTCAATATAAATATCTCTCACTTATTTAAA | 0.708 |  | 
CGACATGTCCCGCTTCTTTCATTAATCCTTTAGCAACTGTTTTGCTATATACAGTTACCTTTTAAGAGGAGGAAT |  | 0.604 | 
ACAGACGAAGGAGCCGCAAAGAAGTTATTTAGGGATGAATAATCCCTCAATATACATATCTCTCACTTATTTAAA | 0.312 |  | 
ACAGACGAAGGAGCCGCAAAGAAATTATTAAGGGATGAATAATCCCTCGATATAAATATCTCTCACTTATTTAAA | 0.395 |  | 
CGACATGTCCCGCTTCTTTCATTAATCAGTTAGCAACTGTTTTGCTATATACATTTACCATTAAGAGGAGGAATT |  | 1.4 | 
ACAGACGAAGGAGCCGCAAAGAAGTTATTATGGGATGAATAATCCCTAAATATAAATATCTCTCACTTATTTAAA | 0.514 |  | 
ACAGACGAAGGAGCCGCAAAGTAGTTATTAAGGGATGAATAATCCCTCAATATACATATCTCTCACTTATTTAAA | 0.664 |  | 
ACAGACGAAGGAGACGCAAAGAAGTTATTAAGGGATGAATAATCCCTCAATATAAATATCTCTCACTTATTTAAA |  |  | cleaved RNA product abundance [4]: 1.03
ACAGACGAAGGAGCCGCAAAGAAGTTATTATGGGATTAATAATCCCTCAATATAAATATCTCTCACTTATTTAAA | 0.307 |  | cleaved RNA product abundance [3]: 0.352
ACAGACGAAGGAGCCGCAAAGAAGTTATTAATGGATGAATAATCCCTAAATATAAATATCTCTCACTTATTTAAA | 0.196 |  | cleaved RNA product abundance [3]: 0.163
CGACATGTCCCGCTTCTTTCATTAATCCGTAAGCAACTTTTTTGCTATATACATTTACCTTTTAAGAGGAGGAAT |  | 0.82 | 
ACAGACGAAGGAGCCGCAAAGAAGTTTTTAAGGGATGAATAATCCCTCAATAAAAATATCTCTCACTTATTTAAA | 0.0781 |  | 
ACAGACGAAGGAGCCGCAAAAAAGTTATTAATGGCTGAATAATCCCTCAATATAAATATCTCTCACTTATTTAAA | 0.0935 |  | 
CGACATGTCCCGCTTCTTTCATTAATCCGTTAGCAATTGTTTTGCCATATACATTTACCTTTTAAGAGGAGGAAT |  | 0.156 | 
